The record followed here is patent publication US20110306068A1 (HYGLOS INVEST, published 2011).

This assay addresses T1, bacteriophage tail protein T4p12 (bacteriophage T4, UniProt P10930 1-527).
T1 sequence (looked up): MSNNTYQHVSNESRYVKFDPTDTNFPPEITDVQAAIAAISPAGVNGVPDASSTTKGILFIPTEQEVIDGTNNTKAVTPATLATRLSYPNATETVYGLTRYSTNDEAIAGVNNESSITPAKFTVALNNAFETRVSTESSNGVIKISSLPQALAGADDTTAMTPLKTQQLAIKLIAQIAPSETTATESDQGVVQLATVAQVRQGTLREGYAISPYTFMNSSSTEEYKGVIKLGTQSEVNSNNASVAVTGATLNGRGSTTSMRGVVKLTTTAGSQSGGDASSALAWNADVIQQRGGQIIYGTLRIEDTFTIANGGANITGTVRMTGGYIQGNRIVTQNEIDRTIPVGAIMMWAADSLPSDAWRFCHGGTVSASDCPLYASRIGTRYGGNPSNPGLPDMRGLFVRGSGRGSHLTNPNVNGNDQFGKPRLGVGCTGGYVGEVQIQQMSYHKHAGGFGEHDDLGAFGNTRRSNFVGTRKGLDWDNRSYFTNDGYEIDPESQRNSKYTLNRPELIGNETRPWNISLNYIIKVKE
The experiment in a line: column chromatography; Miro2p12 covalently immobilised on sepharose, control columns without LPS; T4p12 in fractions read by absorption at 280 nm. The method, then:
The amount of the bacteriophage tail protein p12 was plotted against the fractions of the chromatography run. […] The arrow marks the application of p12 onto the column. The fractions F2-F5 were collected after the application. The amount of p12 (stated in mg) was detected by absorption measurement at 280 nm. The fraction volume was 1 ml for fractions F1-F4 and 2 ml for fraction F5. The dissolution of bound T4p12 protein in fraction F5 was affected by addition of 2 mM EDTA to the running buffer (20 mM Hepes, 150 mM NaCl, 0.1 mM CaCl₂, pH 7.5). The bacteriophage tail protein T4p12 was retained at the columns prior loaded with endotoxin, while it elutes without delay through the columns containing no endotoxin.
Bacteriophage tail protein Miro2p12 was immobilized to NHS-Sepharose (Amersham Pharmacia) (3.4 mg protein per 1 ml sepharose) and out of this 4 column were cast with a volume of 0.5 ml each. The columns were washed with each 3 ml sodium phosphate buffer (20 mM sodium phosphate, pH 12.0) and with each 3 ml regeneration buffer (20 mM Hepes, 150 mM NaCl, 2 mM EDTA, pH 7.5). […] The flow-through was collected three times in fractions of 1 ml and once of 2 ml and the concentrations of the bacteriophage tail protein T4p12 was determined via absorption measurement at 280 nm in these fractions (FIG. 5). […]

B1: bacteriophage tail protein Miro2p12 (other)
chain: MAQNNYNHYSDLAKYTIFDPTNTQWPVAIKDVQSALELIGSWARTDTGLPVASPTVAGVIRTATQAEVDAGTIGNAAVTPATLKSTVTRPEATTAVLGLTRYATNTEAAALTAGNRTITAAALGHVFKTVKAQENVDGTVRLTTAAQAQAGTDETTAVTPKRVVEMIGKFSVSPPSYTSATESNLGLVRVATQAQVAAGAVHDGYAVTPKTFMASKASDSVFGIVKFAKDSDVASATSNNLAVTPKSLQALKSTKDKYGLTRLSGSPTTDASLAAAATDAVFKTRRINGKTLDNDITITNNDINCYTRQESDGRYMPAGTRVGNVTWVEGQSWISRGATFTCNAPWEASSRLALNVNVKFERNNDGYDNRIFRFVVIVNGSQWGGELTLNIENTKGGRNGHSWRFEAYASSNFFFNNIPPNATVQIRPTEDSRIIFYDCMLTFCTNRP
notes: The only purification described is of the N-Strep form
On to B1, for which the binding result was “no binding (tested: 0.5 ml of 0.844 mg/ml T4p12 applied)”.
